Three molecules from patent US7601357B2 (priority 2005, dated 2009) can be followed below.

Data set [1] is classed as biochemical, M. tuberculosis. As to conditions: pH 8.

B1: LIPU: M. tuberculosis putative lipase/esterase gene product expressed in E. coli (protein, UniProt O53424 1-297, looked up)
Esterase LipU: MAVRPVLAVGSYLPHAPWPWGVIDQAARVLLPASTTVRAAVSLPNASAQLVRASGVLPADGTRRAVLYLHGGAFLTCGANSHGRLVELLSKFADSPVLVVDYRLIPKHSIGMALDDCHDGYRWLRLLGYEPEQIVLAGDSAGGYLALALAQRLQEVGEEPAALVAISPLLQLAKEHKQAHPNIKTDAMFPARAFDALDALVASAAARNQVDGEPEELYEPLEHITPGLPRTLIHVSGSEVLLHDAQLAAAKLAAAGVPAEVRVWPGQVHDFQVAASMLPEAIRSLRQIGEYIREATG
modifications: expressed in E. coli
Consider B1, for which the TG hydrolase activity in data set [1] is 0 nmol/mg/min.

B2: LIPY: M. tuberculosis long-chain TG hydrolase, HSL family lipase, expressed His-tagged in E. coli (protein, listed as Mycobacterium tuberculosis)
chain: EYVVAIHGGAFILPPSIFHWLNYSVTAYQTGATVQVPIYPLVQEGGTAGTVVPAMAGLSNVSVVGDSAGGNLALAAAQYMVSQGNPVPSSMVLLSPWLDVGTWQISQAWAGNLAVNLPPTYVYSGSLDPLAQQAVVLEHTAVVQGAPFSFVLAPWQIHDWILLTPWGLLSWPQINQQL
modifications: His6 tag
notes: M. tuberculosis long-chain TG hydrolase, HSL family lipase, expressed His-tagged in E. coli
Regarding B2, under “20 mM diolein emulsion”, the “Rate of [14C]diolein hydrolysis” value came out at 316.8 ± 9.0 nmol/mg/min. The Storage stability result (60 days at 4° C. and 4 cycles of freezing at −20° C. followed by thawing) is recorded as “retained nearly all of its original activity”. In addition, the “Temperature stability of lipase activity” value (held at 50° C. or higher for 15 min prior to assay) is recorded as “dropped off sharply”. For the setting “phosphatidylcholine, phosphatidyl ethanolamine or hexadecyl palmitate, data not shown”, the “Fatty acid release from other substrates” value was “did not show any fatty acid release”. Besides, the Km (read-out: apparent Km, triolein, double-reciprocal plot) was found to be 7.57 mM. The Vmax (triolein, double-reciprocal plot) came to 653.3 nmol/mg/min. In data set [1], this molecule displayed a TG hydrolase activity of 48.6 nmol/mg/min.

B3: LIPV: M. tuberculosis putative lipase/esterase gene product expressed in E. coli (protein, UniProt L0TC47 1-261, looked up)
Lipase LipV: MIIDLHVQRYGPSGPARVLTIHGVTEHGRIWHRLAHHLPEIPIAAPDLLGHGRSPWAAPWTIDANVSALAALLDNQGDGPVVVVGHSFGGAVAMHLAAARPDQVAALVLLDPAVALDGSRVREVVDAMLASPDYLDPAEARAEKATGAWADVDPPVLDAELDEHLVALPNGRYGWRISLPAMVCYWSELARDIVLPPVGTATTLVRAVRASPAYVSDQLLAALDKRLGADFELLDFDCGHMVPQAKPTEVAAVIRSRLGPR
In data set [1], B3 returned a TG hydrolase activity of 0 nmol/mg/min.
